Source: paper PMC7065143, “Substrate Flexibility of the Flavin‐Dependent Dihydropyrrole Oxidases PigB and HapB Involved in Antibiotic Prodigiosin Biosynthesis” (Chembiochem, 2019)

Substrate: CCCCCC1CCN=C1C
Test: purified protein
Format: biochemical, Hahella chejuensis
Settings: MES pH 6.0 10 mM, 30 °C, air, DMSO, racemic substrate 0.1–1.4 mM, HapB 0.457 μM

B1: HapB (Hahella chejuensis KCTC 2396) (protein)
chain: MESQDNSQYAGEAPVFPSKDFECNQGSFDDTDTSPPQHAGDYDVIVVGGGISGLSSAWKLRERKLLVLDQRDRFGGAARLEQRDGLLYASGASCFQLPTGHNEVSHLLQDLDLWNQWRSTAEDTLVIFDTKRLMKGLGEVTAALLKQPKELLKPAVWGLTANLLYSAMSGKPFISAEKKLGDPMFADLFQYLNRFTPDSGKHPAMPWREGCDWTREEMELFDSVSLHDLLFDPATRRSLPQDLIPRHRFGSLVKDAVETTLRVECLAIKDVSAYVGLHFLVGYLYRPLVTFPGGNGYIADRIRQRLMSTGSCKFKAGSRAYSITQNQEGVKVCFQQEGKNYYANANALIWAGAKHAAVSVVDGLPQQQKAAIAEIEHRDYAIAGVYLKKAALANYFGGYVIEGDIGGRYPNSWCRSGVCLAANWKDPSYAGGLGVLTLLKPISGAADQGKLGKADFRNLQQTAYGEVRDMLVATGHSPDLIEDIKLWRWPHGLVVSKVGQMKHDVFVNASQPVGAVFFANQDSVGMGNMESAIWAGCHAAEQVRRHFRSHSSVVSHIGDYAATQS
notes: full-length, N-terminal His6 tag (pQE80-L, pHDB1), E. coli BL21, Ni-NTA; soluble, lacks the N-terminal transmembrane domain of PigB
Km: 220 ± 80 µM
kcat: 0.228 ± 0.02 s⁻¹
